Values joined by “and” are separate entries in the source; they are usually repeats but may differ in a detail not shown here. Identical values can stand only once.
Assays:
[1] = molecular target: T1, Cynomolgus monkey TSLP (cynomolgus monkey, UniProt A0A7N9CAT7 29-159); assay: SPR, BIAcore T100, as in Example 5 (TSLP immobilized)
T1 construct: also called cyno TSLP; cynoTSLP

[2] = molecular target: T2, Human TSLP (expression host not stated) (human, UniProt Q969D9 29-159); assay: as above
T2 construct: also called huTSLP; hu TSLP

[3] = molecular target: T2, Human TSLP (expression host not stated, …); assay: cell-based or functional assay
[4] = molecular target: T3, Recombinant human TSLP, expressed in E. coli (human, UniProt Q969D9 29-159); assay: KinExA, solution equilibrium, beads coated with biotinylated human TSLP; antigen R&D Systems 1398-TS
T3 construct: also called human TSLP E. coli; E. coli-B (biotinylated)

[5] = molecular target: T3, Recombinant human TSLP, expressed in E. …; assay: KinExA, solution equilibrium, beads coated with biotinylated human TSLP; TSLP from E. coli
[6] = molecular target: T4, Recombinant human TSLP, expressed in HEK293 (human, UniProt Q969D9 29-159); assay: ELISA, TSLP coated on plate, antibody titrated; HEK293
T4 construct: also called human TSLP HEK293; HEK293-B (biotinylated)

[7] = molecular target: T1, Cynomolgus monkey TSLP; assay: SPR, BIAcore T100, TSLP amine-coupled to CM5 chip, antibody injected, bivalent analyte model
[8] = molecular target: T2, Human TSLP (expression host not stated, …); assay: as above
[9] = molecular target: T3, Recombinant human TSLP, expressed in E. …; assay: KinExA, solution equilibrium, beads coated with biotinylated human TSLP; antigen R&D Systems 1398-TS; KinExA, not BIAcore
[10] = molecular target: T4, Recombinant human TSLP, expressed in …; assay: ELISA, mean of the 3 rows above (HEK293-B, HEK293, HEK293-F); mean of n = 3: HEK293-B, HEK293 and HEK293-F human TSLP
[11] = molecular target: T4, Recombinant human TSLP, expressed in …; assay: KinExA, solution equilibrium, beads coated with biotinylated human TSLP; TSLP from HEK293
[12] = molecular target: T2, Human TSLP (expression host not stated, …); assay: ELISA, mean of all 5 rows on human TSLP (HEK293 and E. coli pooled)
[13] = molecular target: T1, Cynomolgus monkey TSLP; assay: cell-based or functional assay
[14] = molecular target: T4, Recombinant human TSLP, expressed in …; assay: cell-based or functional assay
[15] = molecular target: T3, Recombinant human TSLP, expressed in E. …; assay: cell-based or functional assay
[16] = molecular target: T4, Recombinant human TSLP, expressed in …; assay: ELISA, TSLP coated on plate, antibody titrated; HEK293-B (biotinylated TSLP)
[17] = molecular target: T3, Recombinant human TSLP, expressed in E. …; assay: ELISA, TSLP coated on plate, antibody titrated; E. coli-B (biotinylated TSLP)
[18] = molecular target: T2, Human TSLP (expression host not stated, …); assay: summary of Tables 10 and 11 (BIAcore, KinExA, Ba/F3 assay)
[19] = molecular target: T4, Recombinant human TSLP, expressed in …; assay: ELISA, mean of the 12 rows above (HEK293, including HEK293-B and HEK293-F)
[20] = molecular target: T3, Recombinant human TSLP, expressed in E. …; assay: ELISA, direct coat of 200 ng TSLP instead of 100 ng, antibody titrated; E. coli
[21] = molecular target: T2, Human TSLP (expression host not stated, …); assay: ELISA, mean of all 19 rows on human TSLP (HEK293 and E. coli pooled)
[22] = molecular target: T3, Recombinant human TSLP, expressed in E. …; assay: ELISA, mean of the 7 rows above (E. coli, including E. coli-B)
[23] = molecular target: T4, Recombinant human TSLP, expressed in …; assay: ELISA, direct coat of 200 ng TSLP instead of 100 ng, antibody titrated; HEK293
[24] = molecular target: T1, Cynomolgus monkey TSLP; assay: ELISA, mean of the 6 rows above (cyno TSLP from HEK293)
[25] = molecular target: T3, Recombinant human TSLP, expressed in E. …; assay: ELISA, TSLP coated on plate, antibody titrated; E. coli
[26] = molecular target: T2, Human TSLP (expression host not stated, …); assay: ELISA, mean of the 5 rows above on human TSLP (HEK293 and E. coli pooled)

B1: cy-hu: cyno-ized 23B12 VL/VH on human constant domains (antibody)
heavy: not shown
light: DIQMTQSPSSLSASVGDRVTITCRASQPISISVHWYQQKPGKAPKLLIYFASQSISGVPSRFSGSGSGTDFTLTISSLQPEDFATYYCQQTFSLPYTFGQGTKVEIKRTVAAPSVFIFPPSDEQLKSGTASVVCLLNNFYPREAKVQWKVDNALQSGNSQESVTEQDSKDSTYSLSSTLTLSKADYEKHKVYACEVTHQGLSSPVTKSFNRGEC
notes: also called cy-hu23B12; Cynoized anti hTSLP mAb 23B12 (782+hIgG1/781hukappa)
Kd [1]: 1.2 nM
Kd [2]: 0.556 nM
EC50, inhibition of TSLP-induced proliferation of Ba/F3 transfectants; TSLP hu, TSLPR hu [3]: 3.9 nM
Kd [4]: 0.063 nM

B2: Rat anti-human TSLP antibody 23B12 (antibody, V domains shown)
VH: EEKLQQSGDDLVRPGAAVKMSCKASGYIFTDYAMHWVKQRPGQGLEWIGTFIPLLDTSDYNQNFKGRATLTADKSSNTAYMELSRLTSEDSAVYYCARMGVTHSYVMDAWGQGASVTVSS
VL: DIVLTQSPATLSVTPGESVSLSCRASQPISISVHWFQQKSNESPRLLIKFASQSISGIPSRFSGSGSGTDFTLNINRVESEDFSVYYCQQTFSLPYTFGTGTKLELKR
notes: Parental rat monoclonal antibody purified from hybridoma supernatant; the rat constant regions are not (a rat IgG2a isotype control is used beside it; the VL is of the kappa subclass); also called r23B12; rat 23B12
Kd [5]: 0.00047 nM
EC50 [6]: 0.37 nM
Kd [1]: 0.086 nM and 0.112 nM
Kd [2]: 0.064 nM and 0.126 nM and 0.114 nM
Kd [7]: 0.086 nM
Kd [8]: 0.064 nM
Kd [9]: 0.00047 nM
EC50 [10]: 0.47 nM
Kd [11]: 0.00022 nM
EC50 [12]: 0.44 nM
EC50 (mean of the 4 rows above), inhibition of TSLP-induced proliferation of Ba/F3-TSLPR-IL7Ra cells; TSLP cyno, HEK293 [13]: 0.56 nM
EC50, inhibition of TSLP-induced proliferation of Ba/F3-TSLPR-IL7Ra cells (Alamar Blue); TSLP cyno, HEK293 [13]: 0.45 nM and 0.42 nM and 0.61 nM and 0.77 nM
EC50 (mean of the 5 rows above), inhibition of TSLP-induced proliferation of Ba/F3-TSLPR-IL7Ra cells; TSLP human, HEK293 [14]: 0.11 nM
EC50 (mean of the 8 rows above), inhibition of TSLP-induced proliferation of Ba/F3-TSLPR-IL7Ra cells; TSLP human, E. coli [15]: 3.01 nM
EC50 [16]: 0.79 nM
EC50 [17]: 0.4 nM and 0.39 nM

B3: Cyno-ized anti-human TSLP 23B12 antibody (antibody)
heavy: SQVQLVESGGGVVQPGRSLRLSCAASGYIFTDYAMHWVRQAPGKGLEWVATFIPLLDTSDYNQNFKGRFTISRDNSKNTLYLQMNSLRAEDTAVYYCARMGVTHSYVMDAWGQGTLVTVSSASTKGPSVFPLAPSSRSTSESTAALGCLVKDYFPEPVTVSWNSGSLTSGVHTFPAVLQSSGLYSLSSVVTVPSSSLGTQTYVCNVNHKPSNTKVDKRVEIKTCGGGSKPPTCPPCPAPELLGGPSVFLFPPKPKDTLMISRTPEVTCVVVDVSQEDPDVKFNWYVNGAEVHHAQTKPRETQYNSTYRVVSVLTVTHQDWLNGKEYTCKVSNKALPAPIQKTISKDKGQPREPQVYTLPPSREELTKNQVSLTCLVKGFYPSDIVVEWESSGQPENTYKTTPPVLDSDGSYFLYSKLTVDKSRWQQGNVFSCSVMHEALHNHYTQKSLSLSPGK
light: DIQMTQSPSSLSASVGDRVTITCRASQPISISVHWYQQKPGKAPKLLIYFASQSISGVPSRFSGSGSGTDFTLTISSLQPEDFATYYCQQTFSLPYTFGQGTKVEIKRTVAAPSVFIFPPSEDQVKSGTVSVVCLLNNFYPREASVKWKVDGVLKTGNSQESVTEQDSKDNTYSLSSTLTLSSTDYQSHNVYACEVTHQGLSSPVTKSFNRGEC
notes: Rat 23B12 CDRs on human VL kappa-I / VH-III frameworks fused to cynomolgus IgG constant domains, produced in CHO cells; also called cy23B12; Cynoized anti hTSLP mAb 23B12 (782+MAFA19/781MAFA7)
Kd [1]: 1.16 nM and 2.51 nM
fold reduction in binding against hu23B12 [18]: 5 fold
fold reduction in binding against parental rat 23B12 [18]: 10 fold
EC50, inhibition of TSLP-induced proliferation of Ba/F3 transfectants; TSLP hu, TSLPR cyno [3]: 0.03 nM and 0.05 nM
Kd [4]: 0.052 nM

B4: Humanized anti hu TSLP mAb 23B12 (VL Y49) (antibody, human IgG1, kappa)
heavy: not shown
light: EIVLTQSPGTLSLSPGERATLSCRASQPISISVHWYQQKPGQAPRLLIYFASQSISGIPDRFSGSGSGTDFTLTISRLEPEDFAVYYCQQTFSLPYTFGQGTKVEIKRTVAAPSVFIFPPSDEQLKSGTASVVCLLNNFYPREAKVQWKVDNALQSGNSQESVTEQDSKDSTYSLSSTLTLSKADYEKHKVYACEVTHQGLSSPVTKSFNRGEC
notes: also called hu23B12(VL Y49); hu23B12
Kd [5]: 0.0017 nM
Kd [1]: 0.132 nM
Kd [2]: 0.111 nM
EC50 [19]: 0.14 nM
Kd [7]: 0.132 nM
Kd [8]: 0.111 nM
EC50 [20]: 0.061 nM and 0.029 nM
EC50 [21]: 0.11 nM
EC50 [22]: 0.07 nM
EC50 [23]: 0.073 nM
EC50 [24]: 0.31 nM
Kd [11]: 0.0021 nM
EC50 [16]: 0.22 nM
EC50, inhibition of TSLP-induced proliferation of Ba/F3 transfectants; TSLP hu, TSLPR hu [3]: 7.6 nM
EC50 [17]: 0.064 nM and 0.085 nM
Kd [4]: 0.0017 nM
EC50 [25]: 0.11 nM and 0.06 nM

B5: Humanized anti hu TSLP mAb 23B12 (VL K49) (antibody, human IgG1, kappa, V domains shown)
VH: QVQLVQSGAEVKKPGASVKVSCKASGYIFTDYAMHWVRQAPGQGLEWMGTFIPLLDTSDYNQNFKGRVTMTTDTSTSTAYMELRSLRSDDTAVYYCARMGVTHSYVMDAWGQGTLVTVSS
VL: EIVLTQSPGTLSLSPGERATLSCRASQPISISVHWYQQKPGQAPRLLIKFASQSISGIPDRFSGSGSGTDFTLTISRLEPEDFAVYYCQQTFSLPYTFGQGTKVEIKR
notes: Light chain variant of hu23B12 with K at position 49; human IgG1 / kappa; also called hu23B12(VL K49)
EC50 [6]: 0.034 nM
EC50 [26]: 0.05 nM
Kd [11]: 0.001 nM
EC50 [16]: 0.12 nM
EC50 [17]: 0.038 nM and 0.05 nM

B6: hu-cy: humanized 23B12 VL/VH on cynomolgus constant domains (antibody)
heavy: QVQLVQSGAEVKKPGASVKVSCKASGYIFTDYAMHWVRQAPGQGLEWMGTFIPLLDTSDYNQNFKGRVTMTTDTSTSTAYMELRSLRSDDTAVYYCARMGVTHSYVMDAWGQGTLVTVSSASTKGPSVFPLAPSSRSTSESTAALGCLVKDYFPEPVTVSWNSGSLTSGVHTFPAVLQSSGLYSLSSVVTVPSSSLGTQTYVCNVNHKPSNTKVDKRVEIKTCGGGSKPPTCPPCPAPELLGGPSVFLFPPKPKDTLMISRTPEVTCVVVDVSQEDPDVKFNWYVNGAEVHHAQTKPRETQYNSTYRVVSVLTVTHQDWLNGKEYTCKVSNKALPAPIQKTISKDKGQPREPQVYTLPPSREELTKNQVSLTCLVKGFYPSDIVVEWESSGQPENTYKTTPPVLDSDGSYFLYSKLTVDKSRWQQGNVFSCSVMHEALHNHYTQKSLSLSPGK
light: EIVLTQSPGTLSLSPGERATLSCRASQPISISVHWYQQKPGQAPRLLIYFASQSISGIPDRFSGSGSGTDFTLTISRLEPEDFAVYYCQQTFSLPYTFGQGTKVEIKRTVAAPSVFIFPPSEDQVKSGTVSVVCLLNNFYPREASVKWKVDGVLKTGNSQESVTEQDSKDNTYSLSSTLTLSSTDYQSHNVYACEVTHQGLSSPVTKSFNRGEC
notes: also called hu-cy23B12; Cynoized anti hTSLP mAb 23B12 (huV-CynoC chimera)
Kd [1]: 0.114 nM
Kd [2]: 0.106 nM
EC50, inhibition of TSLP-induced proliferation of Ba/F3 transfectants; TSLP hu, TSLPR hu [3]: 5.3 nM
Kd [4]: 0.0014 nM

— patent publication US20140141011A1 (SCHERING, published 2014)
